Laboratory results reported in patent US20110288003A1 (INDIANA UNIVERSITY RESEARCH AND TECHNOLOGY, published 2011).
Read-outs that look alike come from different tables or passages of the source. Bridge positions count the residues as written; N and C are the ends. Ends that are not written are not given here. PLA = phenyl lactic acid

Experiments:
Experiment in all cases: cell-based or functional assay
glucagon receptor [1] = target: T1, glucagon receptor (UniProt P47871 26-477, limits assumed)
T1 sequence (P47871 26-477 limits assumed): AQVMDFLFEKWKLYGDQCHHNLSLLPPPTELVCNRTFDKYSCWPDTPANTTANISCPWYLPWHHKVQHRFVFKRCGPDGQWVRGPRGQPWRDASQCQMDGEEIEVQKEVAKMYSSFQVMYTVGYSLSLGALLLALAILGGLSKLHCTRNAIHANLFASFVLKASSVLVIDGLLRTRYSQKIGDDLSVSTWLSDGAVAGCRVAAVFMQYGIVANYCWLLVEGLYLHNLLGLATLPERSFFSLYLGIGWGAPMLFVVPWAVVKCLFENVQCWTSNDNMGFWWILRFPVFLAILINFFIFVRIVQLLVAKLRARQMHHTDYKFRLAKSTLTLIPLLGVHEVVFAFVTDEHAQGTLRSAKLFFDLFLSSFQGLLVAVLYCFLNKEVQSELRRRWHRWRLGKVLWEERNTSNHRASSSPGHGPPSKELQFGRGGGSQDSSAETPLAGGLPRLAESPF

GLP-1 receptor [2] = target: T2, GLP-1 receptor (UniProt P43220 24-463, limits assumed)
glucagon receptor [3] = target: T1, glucagon receptor; remark: listed apart in the source
GLP-1 receptor [4] = target: T2, GLP-1 receptor; remark: listed apart in the source
Target sequence in this assay (P43220 24-463 limits assumed): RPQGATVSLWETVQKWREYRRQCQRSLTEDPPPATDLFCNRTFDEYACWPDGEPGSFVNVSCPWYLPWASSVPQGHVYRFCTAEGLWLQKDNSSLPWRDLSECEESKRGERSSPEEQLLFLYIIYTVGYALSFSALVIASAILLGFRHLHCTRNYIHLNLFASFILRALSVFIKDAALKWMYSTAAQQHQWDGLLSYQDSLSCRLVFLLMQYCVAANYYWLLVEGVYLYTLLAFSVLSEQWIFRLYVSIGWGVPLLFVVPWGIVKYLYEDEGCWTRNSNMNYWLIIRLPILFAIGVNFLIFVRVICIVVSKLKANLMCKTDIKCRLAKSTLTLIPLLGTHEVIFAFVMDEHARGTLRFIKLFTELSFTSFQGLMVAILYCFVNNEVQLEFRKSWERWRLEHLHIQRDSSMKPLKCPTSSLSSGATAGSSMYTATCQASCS

glucagon receptor [5] = target: T1, glucagon receptor; remark: listed apart in the source
GLP-1 receptor [6] = target: T2, GLP-1 receptor; remark: listed apart in the source

Binder	Glucagon IC50 (glucagon receptor [1]) [nM]	Glu IC50 (glucagon receptor [5]) [nM]	GLP-1 EC50 (GLP-1 receptor [6]) [nM]	further results
{PLA}-TSDYSKYLDERRAKDFVQWLMDT (lactam 10-14) [[PLA6, D9, E16K20(lactam), D28]G(6-29)]	10 to 30			GLP-1 EC50 (GLP-1 receptor [2]): 4 nM; Glucagon IC50 (glucagon receptor [3]): 6 nM
{PLA}-TSEYSKYLDERRAQDFVQWLMNTGPSSGAPPPS (lactam 6-10) [[PLA6, E9, K12E16(Lactam) glucagon(6-39) (Table 13, peptide 5)]		72		GLP-1 EC50 (GLP-1 receptor [4]): 6 nM
FTSEYSKYLDERRAQDFVQWLMNTGPSSGAPPPS [E9, K12, E16 glucagon(6-39) (Table 13, peptide 1)]		762		Glucagon IC50 (glucagon receptor [3]): 762 nM
FTSDYSKYLDERRAQDFVQWLMNTGPSSGAPPPS (lactam 7-11) [D9, K12E16(Lactam) glucagon(6-39) (Table 13, peptide 4)]		828		GLP-1 EC50 (GLP-1 receptor [4]): 119 nM
FTSEYSKYLDERRAQDFVQWLMNTGPSSGAPPPS (lactam 7-11) [E9, K12E16(lactam) glucagon(6-39) (Table 13, peptide 2)]		2010		GLP-1 EC50 (GLP-1 receptor [4]): 63 nM; GLP-1 EC50 (GLP-1 receptor [2]): 63 nM; Glucagon IC50 (glucagon receptor [3]): 2010 nM
FTSEYSKYLDERRAKDFVQWLMNTGPSSGAPPPS (lactam 11-15) [E9, E16K20(lactam) glucagon(6-39) (Table 13, peptide 3)]		42		GLP-1 EC50 (GLP-1 receptor [4]): 36 nM; GLP-1 EC50 (GLP-1 receptor [2]): 36 nM; Glucagon IC50 (glucagon receptor [3]): 42 nM
HAEGTFTSEYSKYLDERRAKDFVQWLMDT-NH2 (lactam 16-20; N-terminus assumed; SMILES CSCC[C@H](NC(=O)[C@H](CC(C)C)NC(=O)[C@H](Cc1c[nH]c2ccccc12)NC(=O)[C@H](CCC(N)=O)NC(=O)[C@@H](NC(=O)[C@H](Cc1ccccc1)NC(=O)[C@H](CC(=O)O)NC(=O)[C@@H]1CCCCNC(=O)CC[C@H](NC(=O)[C@H](CC(=O)O)NC(=O)[C@H](CC(C)C)NC(=O)[C@H](Cc2ccc(O)cc2)NC(=O)[C@H](CCCCN)NC(=O)[C@H](CO)NC(=O)[C@H](Cc2ccc(O)cc2)NC(=O)[C@H](CCC(=O)O)NC(=O)[C@H](CO)NC(=O)[C@@H](NC(=O)[C@H](Cc2ccccc2)NC(=O)[C@@H](NC(=O)CNC(=O)[C@H](CCC(=O)O)NC(=O)[C@H](C)NC(=O)[C@@H](N)Cc2c[nH]cn2)[C@@H](C)O)[C@@H](C)O)C(=O)N[C@@H](CCCNC(=N)N)C(=O)N[C@@H](CCCNC(=N)N)C(=O)N[C@@H](C)C(=O)N1)C(C)C)C(=O)N[C@@H](CC(=O)O)C(=O)N[C@H](C(N)=O)[C@@H](C)O) [[A2E3, E16K20(Lactam), D28]G(1~29)]			0.2	Glucagon IC50 (nM); PA = partial antagonist (glucagon receptor [1]): 130 nM
{PLA}-TSDYSKYLDERRAQDFVQWLMDT (lactam 6-10) [[PLA6, D9, K12E16(Lactam), D28]G(6-29)]	63		177	
{PLA}-TSDYSKYLDERRAQDFVEWLMKT (lactam 18-22) [[PLA6, D9, E16, E24K28(lactam)]G(6~29)]	22		289	
{PLA}-TSDYSKYLDERRAKDFVEWLMDT (lactam 14-18) [[PLA6, D9, E16, K20E24(Lactam), D28]G(6-29)]	74		239	
TSEYSKYLDERRAKDFVQWLMNTGPSSGAPPPS (PLA (phenyl lactic acid, in place of Phe6 of glucagon) at the N-terminus before the printed letters; lactam between E16 and K20 (glucagon numbering)) [[PLA6, E9, E16K20(Lactam)] glucagon(6-39) (Table 13, peptide 6)]				GLP-1 EC50 (GLP-1 receptor [2]): 20 nM
GTFTSEYSKYLDERRAKDFVQWLMDT-NH2 (lactam 13-17; N-terminus assumed; SMILES CSCC[C@H](NC(=O)[C@H](CC(C)C)NC(=O)[C@H](Cc1c[nH]c2ccccc12)NC(=O)[C@H](CCC(N)=O)NC(=O)[C@@H](NC(=O)[C@H](Cc1ccccc1)NC(=O)[C@H](CC(=O)O)NC(=O)[C@@H]1CCCCNC(=O)CC[C@H](NC(=O)[C@H](CC(=O)O)NC(=O)[C@H](CC(C)C)NC(=O)[C@H](Cc2ccc(O)cc2)NC(=O)[C@H](CCCCN)NC(=O)[C@H](CO)NC(=O)[C@H](Cc2ccc(O)cc2)NC(=O)[C@H](CCC(=O)O)NC(=O)[C@H](CO)NC(=O)[C@@H](NC(=O)[C@H](Cc2ccccc2)NC(=O)[C@@H](NC(=O)CN)[C@@H](C)O)[C@@H](C)O)C(=O)N[C@@H](CCCNC(=N)N)C(=O)N[C@@H](CCCNC(=N)N)C(=O)N[C@@H](C)C(=O)N1)C(C)C)C(=O)N[C@@H](CC(=O)O)C(=O)N[C@H](C(N)=O)[C@@H](C)O) [[E9, E16K20(lactam), D28]G(4~29)]	10 to 30		151	
HSQGTFTSDYARYLDARRAREFIKWLVRGRG [ANK2 (Bayer peptide)]			0.28	
AEGTFTSEYSKYLDERRAKDFVQWLMDT (lactam 15-19) [[A2E3, E16K20(Lactam), D28]G(2~29)]	63			
